Consider 103 substances from the supplement of paper PMC12042874.

± gives the uncertainty stated by the source.

This data set can be described thus: amyloid nucleation score (Sup35N fusion, yeast selection) (log enrichment); library NNK2; higher = more nucleation; inactive = no reads after selection. In short, it runs like this:
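Using DiMSum, nucleation scores were taken as the log enrichment of output over input reads, centred on the mode score of non-aggregating sequences. The input and output reads came from Illumina sequencing of plasmid inserts, with sequences under 100 input reads excluded. The yeast were psi-negative, expressed Sup35N fused to peptides of 20 random codons, were induced with 100 μM copper sulfate for 24 hours, and were grown 7 days at 30°C on medium lacking adenine and uracil.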
PVYPAAYWIVSDGGCNVSWE had an amyloid nucleation score of -0.789 ± 0.37. Next, NVKTKLCAGSKYSFPF: 0.213 ± 0.43; VKIWLCATCFMGEDVQETAQ: 7.055 ± 0.044. As for DNCSLPSGTMGSDNSGGRIQ, the amyloid nucleation score is -0.444 ± 0.32. IYRSVTRKSERMCTVVGQVV: the amyloid nucleation score is -0.279 ± 0.48. Next, FMEYCSVLLFCLVMARLSGS: -0.012 ± 1.1. Next, YLLSNWTNKVSWFLCVRPQS: 2.23 ± 0.12; RVRIGQAGVWAPRPKELTLW: 0.679 ± 0.81. Next, NINTSYHNSPCPQYTLASMW: -0.231 ± 1; FFRLIGDGGYCCFPCKSDVR: 2.54 ± 0.077; DSNDRWVW: -0.409 ± 0.76. AIRVLCKEYSQSDRMNEWLN: the amyloid nucleation score entry was “inactive”. As for CNGSRVKDFRCRFRWNGLGL, the amyloid nucleation score is -0.889 ± 0.41. As for FVYKTGYVSSVCYGIVVVVD, the figure is -0.826 ± 0.5. As for AFGNNDDLGARRYGMATPGR, the figure is 0.746 ± 0.62; as for SIGFPSMSMRSWILFTSLYR, 0.004 ± 0.8; as for YRLAFKMRNHGYQVELGLSV, -0.088 ± 1.1. Next, SSGLH: 0.527 ± 0.8; YVSFMGNSNMFVKLFLRGCI: 0.391 ± 0.2; HNNGRSFYEKAMVDLGGAWL: 0.263 ± 0.64. For the substance NNFWSNGG, the amyloid nucleation score is -0.285 ± 0.48. Next, GMGSVCGIIEYAWTA: 0.627 ± 0.3; SSDNRFCVDDFEVGVCGVMR: 2.84 ± 0.07; EGNYFSGIS: -1.2 ± 0.48. On to IGKSEYVEFRLTSSP, for which the amyloid nucleation score worked out at 0.354 ± 0.53. NKMGVKVYTRIAQHSGHLFA yielded an amyloid nucleation score of 5.21 ± 0.094. Next, VLALYYINSATLILFLIFKS: -1.16 ± 1.1; YRSIC: -1.63 ± 0.75.

In turn, SMRYVVISKQRSILEISLRY showed an amyloid nucleation score of 3.46 ± 0.047. Next, VVILFVLGLVNPELS: 0.649 ± 0.55. As for VLISVIWLRGRKLSVGWKKD, the figure is 0.593 ± 0.53. As for NFVKRV, the figure is -0.509 ± 0.48; as for SMRVECF, -1.82 ± 1.1.

Consider RMGCLFCRESNWILSFYSVS, for which the amyloid nucleation score worked out at 5.87 ± 0.074.

In turn, MFKQFVSLLHQGLFLSLSFD had an amyloid nucleation score of -0.01 ± 0.6.

LYREDGNMSDH returned an amyloid nucleation score of 1.82 ± 0.28. Consider HATSMCNWAVFIECFFFGKL, for which the amyloid nucleation score amounted to 5.39 ± 0.065. Next, GVVGSFPRPTSSRGRLDYCN: -0.169 ± 0.55; VNYYSFLLVFPGLQLTREIN: 6.38 ± 0.09.

NIRMVNLLAYVCPEVIREAC: the amyloid nucleation score entry is “inactive”. As for HVKRD, the figure is 3.23 ± 0.16; as for WTRCPQSRYHVLVRVYSYWA, 0.193 ± 0.27; as for FHLMFCGSL, -0.818 ± 0.49.

Substance SRLRNYLKVLSD registered an amyloid nucleation score of -0.474 ± 1.1. Next, IDYVFAAGDKWWVSVLL: -0.412 ± 1.1; ISFYVCVIML: 7.433 ± 0.065. As for FRGDILRFL, the entry is “inactive”. Next, REGVQVIQTGLVEYKLG: -0.029 ± 0.79.

With VHAVGHNSIGTRIRWVNGAA, the amyloid nucleation score is 0.504 ± 0.33. LVMVCMVSFENHYMLGTEVL: the amyloid nucleation score stood at 2.71 ± 0.14. As for FLLHVCVADKVGVTSIHTCC, the figure is -0.181 ± 0.35. Next, SWCFYMKGEWWYLLFHSNRS: -1.73 ± 0.55; YKSDYSKLLCWKNYKFWLVC: -1.07 ± 0.37; RIFLYND: “inactive”.

Substance TKYDLHPMIVSFECDRHLMW showed an amyloid nucleation score of 0.411 ± 0.49. As for AIRRYIVKAPLLCES, the figure is 1.75 ± 0.47; as for DSVFNMTIADECFG, -1.06 ± 1.1; as for LFCSYPNTASRKLAIGIVAS, 0.438 ± 0.55.

Consider FFIYGNSHVSVIRYWTCTLT, for which the amyloid nucleation score stood at 7.391 ± 0.049. Next, EFWPKELIRSDDSASFNGMS: 0.007 ± 1.1; LIVCRFDFPSNFSVDFFRVM: 0.14 ± 0.74. As for YGRGWHCTLYCIN, the figure is 0.008 ± 0.8; as for NATCPRHCRDHQGSYYRHCL, 0.499 ± 0.28; as for IFNKYLVIFSIFI, 6.747 ± 0.037. As for ARLVYQLATRTCCFSQ, the figure is -0.032 ± 1.1. As for LCKFFDTVVSMLGSVCSGNQ, the amyloid nucleation score is 3.22 ± 0.1. As for ILYGVLTPYFHAVI, the figure is -0.003 ± 0.65; as for RMLADGVTLVPCWALQL, 0.57 ± 0.43. Next, NTGWILPYCKRGNSALEGWL: 4.31 ± 0.056; LVQRWGWSKPLIAGI: -0.271 ± 0.49; LFIRSIRPMDVVGVTLSAVE: 0.764 ± 0.41. Next, SLSLGLSSCEPYYAVC: -0.276 ± 0.28; SSLYHLAGHGTAGSRLTSGR: 0.511 ± 0.41. With SVPRYRSLMKRCH, the amyloid nucleation score worked out at 0.189 ± 0.32.

The substance IMSSVELWENHYCGDVCMIV yielded an amyloid nucleation score of 7.908 ± 0.049. As for WVCHVNMRSEYMDIIMEGTN, the entry is “inactive”; as for YGLGKTVFTTDGPGMLNGQA, 1.18 ± 0.47; as for TLSCSYVCAPTVYVQSSRPT, 1.27 ± 0.18. Next, MCVYCVDYWGACRLEILALW: -0.423 ± 0.41.

For KGYGIHFCFRCMDSRCGVS, the amyloid nucleation score worked out at 0.97 ± 0.28. On to YAIDRRKSL, for which the amyloid nucleation score entry was “inactive”. Next, YMLNHVIQNMSSWCEVT: -0.103 ± 0.34; FFDYLANFCLSKHGNNNYPF: -0.97 ± 1.1. Next, LIEAESSDRGPYVPNQCGWN: 1.11 ± 0.68; LYWSLCDFCN: “inactive”; VFTISESHLCWQYHLQEFT: 4.76 ± 0.068. PLERKRLSHCRWLGRRRLGG yielded an amyloid nucleation score of 1 ± 0.34. Next, KDLPTSYIYMFDY: -1.2 ± 0.78; MSKEVVSSGYVIHIRRQRGG: 0.82 ± 0.57; CCLTPYAIICLLARLNHTKV: -0.273 ± 0.61. As for TFLSSC, the amyloid nucleation score was 0.096 ± 0.32. As for IDLSLNLGVRGVRQDETLFA, the entry is “inactive”; as for SYNVFDVQIVLRYIVKLFTG, “inactive”.

On to IFWYRCNINSGCEQVVYWGN, for which the amyloid nucleation score turned out to be 5.311 ± 0.033. As for FLFGLSIMLLNKEPGRCFRG, the figure is 5.23 ± 0.097; as for SSLNM, -0.595 ± 0.61. As for LPHKSLFDPLWRIGKILIQH, the figure is 0.034 ± 1.1; as for IDVLTQLNSFRMNFYVSANI, -0.868 ± 1.1; as for NQFLMVWSDIDVRKDVRFLH, -0.977 ± 0.48. As for SSTWLGLS, the figure is 0.112 ± 1.1; as for YARGNFKSLCCPMV, -0.927 ± 0.78. GFYIKVFNSEWYALNLDVRL had an amyloid nucleation score of 4.67 ± 0.075. As for TFVHIIHNFVGVQHFKKLGC, the figure is 5 ± 0.094.
